What all share (assay): SEC + other: dynamic light scattering
Test [1] deals with G. stearothermophilus GerD M111P (Geobacillus stearothermophilus).
Test [2] deals with G. stearothermophilus GerD ΔH6-8 (Geobacillus stearothermophilus).
Test [3] has as its target G. stearothermophilus GerD D118A (Geobacillus stearothermophilus).
The target of test [4] is G. stearothermophilus GerD Q122A (Geobacillus stearothermophilus).
The target in test [5] is G. stearothermophilus GerD ΔH5-8 (Geobacillus stearothermophilus).
Test [6] concerns the target G. stearothermophilus GerD ΔH01-02 (Geobacillus stearothermophilus).
Test [7] addresses G. stearothermophilus GerD R148A (Geobacillus stearothermophilus).
Test [8] has as its target G. stearothermophilus GerD F86P (Geobacillus stearothermophilus).
Test [9] concerns the target G. stearothermophilus GerD M138P (Geobacillus stearothermophilus).
Test [10] has as its target G. stearothermophilus GerD M36P (Geobacillus stearothermophilus).

A word on the stoichiometry N: it is a count of units in the complex or per binding partner.

As for “G. stearothermophilus GerD M111P (from UniProt A0ACH1E844 1-195) (natural protein)”, the stoichiometry N in [1] stood at 3.
As for “G. stearothermophilus GerD ΔH6-8 (from UniProt A0ACH1E844 1-133) (domain or fragment)”, in test [2], the stoichiometry N was 3.
Turning to “G. stearothermophilus GerD D118A (from UniProt A0ACH1E844 1-195) (natural protein)”, in [3], the stoichiometry N is 3.
As to “G. stearothermophilus GerD Q122A (from UniProt A0ACH1E844 1-195) (natural protein)”, in [4], the stoichiometry N came to 3.
As to “G. stearothermophilus GerD ΔH5-8 (from UniProt A0ACH1E844 1-120) (domain or fragment)”, the stoichiometry N in test [5] worked out at 3.
Consider “G. stearothermophilus GerD ΔH01-02 (from UniProt A0ACH1E844 60-180) (domain or fragment)”, for which the stoichiometry N in test [6] is 3.
With “G. stearothermophilus GerD R148A (from UniProt A0ACH1E844 1-195) (natural protein)”, the stoichiometry N in [7] is 3.
For the substance “G. stearothermophilus GerD F86P (from UniProt A0ACH1E844 1-195) (natural protein)”, the stoichiometry N in [8] amounted to 3.
As for “G. stearothermophilus GerD M138P (from UniProt A0ACH1E844 1-195) (natural protein)”, the stoichiometry N in test [9] stood at 3.
For “G. stearothermophilus GerD M36P (from UniProt A0ACH1E844 1-195) (natural protein)”, in [10], the stoichiometry N was found to be 3.

Values taken from publication PMC4038265.
